This note sets out measurements from article PMC4735476, “Dataset concerning GroEL chaperonin interaction with proteins” (Data in Brief, 2016).

The target of the test is T1, GroEL chaperonin ( (purified from Escherichia …, UniProt P0A6F5 1-548)).
T1 construct: GroEL chaperonin, purified from Escherichia coli cells (HB101 strain) after expression of the plasmid pGroE4
Briefly: fluorescence polarisation; 30×10^-9 M denatured fluorescein-labeled protein titrated with GroEL in 20 mM Tris–HCl, pH 7.5, 20 mM DTT, 10 mM MgCl2, 300 mM NaCl; apparent constant, counted on GroEL cavities. Conditions: both partners purified.

T1 sequence (P0A6F5 whole entry): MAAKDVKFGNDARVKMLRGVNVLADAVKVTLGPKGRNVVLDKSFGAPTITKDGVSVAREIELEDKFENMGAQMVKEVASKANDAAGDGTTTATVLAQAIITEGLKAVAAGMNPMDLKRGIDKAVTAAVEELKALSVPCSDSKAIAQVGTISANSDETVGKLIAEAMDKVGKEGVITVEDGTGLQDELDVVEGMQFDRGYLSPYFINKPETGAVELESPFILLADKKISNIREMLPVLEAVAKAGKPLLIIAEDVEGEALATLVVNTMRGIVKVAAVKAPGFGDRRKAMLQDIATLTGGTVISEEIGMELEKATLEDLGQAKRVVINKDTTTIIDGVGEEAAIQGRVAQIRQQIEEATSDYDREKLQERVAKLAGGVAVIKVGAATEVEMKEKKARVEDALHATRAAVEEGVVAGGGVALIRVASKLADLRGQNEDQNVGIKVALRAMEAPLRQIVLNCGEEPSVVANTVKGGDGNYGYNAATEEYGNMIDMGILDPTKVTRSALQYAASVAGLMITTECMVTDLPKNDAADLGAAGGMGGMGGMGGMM

B1: fluorescein-labeled human α-lactalbumin (natural protein, UniProt P00709 20-142, looked up)
chain: KQFTKCELSQLLKDIDGYGGIALPELICTMFHTSGYDTQAIVENNESTEYGLFQISNKLWCKSSQVPQSRNICDISCDKFLDDDITDDIMCAKKILDIKGIDYWLAHKALCTEKLEQWLCEKL
modifications: fluorescein label (fluorescein isothiocyanate), position not stated
notes: Human α-lactalbumin; The same labelled protein was used native (20 mM Tris-HCl, pH 7.5) and denatured (buffer with 20 mM DTT); the assays tell the two states apart; also called native α-lactalbumin; denatured α-lactalbumin; source: bought: Sigma (USA), used without additional purification; labelled with fluorescein isothiocyanate, PD-10 and MonoQ
For B1, the Kd came out at 1.6 nM.
